Measurements as given in US20060177932A1 (published 2006).

Molecular target: the molecule itself
Assay: not described (homodimerisation stated in Example 7)

B1: STAT5A 1*7 (other)
chain: MAGWIQAQQLQGDALRQMQVLYGQHFPIEVRHYLAQWIESQPWDAIDLDNPQDRGQATQLLEGLVQELQKKAEHQVGEDGFLLKIKLGHYATQLQNTYDRCPMELVRCIRHILYNEQRLVREANNCSSPAGVLVDAMSQKHLQINQRFEGLRLITQDTENELKKLQQTQEYFIIQYQESLRIQAQFAQLGQLNPQERMSRETALQQKQVSLETWLQREAQTLQQYRVELAEKHQKTLQLLRKQQTIILDDELIQWKRRQQLAGNGGPPEGSLDVLQSWCEKLAEIIWQNRQQIRRAEHLCQQLPIPGPVEEMLAEVNATITDIISALVTSTFIIEKQPPQVLKTQTKFAATVRLLVGGKLNVHMNPPQVKATIISEQQAKSLLKNENTRNECSGEILNNCCVMEYHQATGTLSAHFRNMSLKRIKRADRRGAESVTEEKFTVLFESQFSVGSNELVFQVKTLSLPVVVIVHGSQDHNATATVLWDNAFAEPGRVPFAVPDKVLWPQLCEALNMKFKAEVQSNRGLTKENLVFLAQKLFNISSNHLEDYNSMSVSWSQFNRENLPGWNYTFWQWFDGVMEVLKKHHKPHWNDGAILGFVNKQQAHDLLINKPDGTFLLRFSDSEIGGITIAWKFDSPDRNLWNLKPFTTRDFSIRSLADRLGDLNYLIYVFPDRPKDEVFAKYYTPVLAKAVDGYVKPQIKQVVPEFVNAFTDAGASATYMDQAPSPVVCPQPHYNMYPPNPDPVLDQDGEFDLDESMDVARHVEELLRRPMDSLDARLSPPAGLFTSARSSLS
notes: Expressed from the retrovirus vector GCsam-IRES-EGFP; also called STAT5 1*7; active STAT5 variant
Question: Does B1 bind?
Answer: binds
